# B1: Carboxypeptidase Y (Saccharomyces cerevisiae), P00729 (parent)
# chain: MKAFTSLLCGLGLSTTLAKAISLQRPLGLDKDVLLQAAEKFGLDLDLDHLLKELDSNVLDAWAQIEHLYPNQVMSLETSTKPKFPEAIKTKKDWDFVVKNDAIENYQLRVNKIKDPKILGIDPNVTQYTGYLDVEDEDKHFFFWTFESRNDPAKDPVILWLNGGPGCSSLTGLFFELGPSSIGPDLKPIGNPYSWNSNATVIFLDQPVNVGFSYSGSSGVSNTVAAGKDVYNFLELFFDQFPEYVNKGQDFHIAGESYAGHYIPVFASEILSHKDRNFNLTSVLIGNGLTDPLTQYNYYEPMACGEGGEPSVLPSEECSAMEDSLERCLGLIESCYDSQSVWSCVPATIYCNNAQLAPYQRTGRNVYDIRKDCEGGNLCYPTLQDIDDYLNQDYVKEAVGAEVDHYESCNFDINRNFLFAGDWMKPYHTAVTDLLNQDLPILVYAGDKDFICNWLGNKAWTDVLPWKYDEEFASQKVRNWTASITDEVAGEVKSYKHFTYLRVFNGGHMVPFDVPENALSMVNEWIHGGFSL
# partner: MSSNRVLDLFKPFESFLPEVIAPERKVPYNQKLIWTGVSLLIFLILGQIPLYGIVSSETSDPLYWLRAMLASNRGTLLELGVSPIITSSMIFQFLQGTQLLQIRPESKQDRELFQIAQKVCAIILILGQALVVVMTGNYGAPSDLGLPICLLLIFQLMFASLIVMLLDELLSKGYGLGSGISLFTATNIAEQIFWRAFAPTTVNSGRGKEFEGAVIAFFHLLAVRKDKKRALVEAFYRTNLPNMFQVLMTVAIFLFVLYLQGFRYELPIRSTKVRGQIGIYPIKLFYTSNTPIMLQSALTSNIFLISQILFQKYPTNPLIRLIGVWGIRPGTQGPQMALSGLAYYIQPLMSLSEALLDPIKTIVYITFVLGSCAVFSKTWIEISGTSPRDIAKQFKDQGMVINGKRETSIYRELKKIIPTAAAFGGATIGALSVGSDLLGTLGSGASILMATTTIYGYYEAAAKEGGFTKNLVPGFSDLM
# Variants of: B1
# Conditions: with sc61a_yeast SEC61, P32915
row,Variant,effect of a mutation on the interaction
1,G255R,increasing interaction

# — IntAct's records for PubMed 19696741
